In US20240209041A1 (SRI INTERNATIONAL, published 2024):
Primed or numbered codes have the meaning given here. [ ]: non-standard residue; d: D form. PEG11′ = not defined here

Target: purified EphA2 (UniProt P29317 25-534, limits assumed)
Assay: binding to purified EphA2; method not stated

Chain of purified EphA2 (P29317 25-534 limits assumed): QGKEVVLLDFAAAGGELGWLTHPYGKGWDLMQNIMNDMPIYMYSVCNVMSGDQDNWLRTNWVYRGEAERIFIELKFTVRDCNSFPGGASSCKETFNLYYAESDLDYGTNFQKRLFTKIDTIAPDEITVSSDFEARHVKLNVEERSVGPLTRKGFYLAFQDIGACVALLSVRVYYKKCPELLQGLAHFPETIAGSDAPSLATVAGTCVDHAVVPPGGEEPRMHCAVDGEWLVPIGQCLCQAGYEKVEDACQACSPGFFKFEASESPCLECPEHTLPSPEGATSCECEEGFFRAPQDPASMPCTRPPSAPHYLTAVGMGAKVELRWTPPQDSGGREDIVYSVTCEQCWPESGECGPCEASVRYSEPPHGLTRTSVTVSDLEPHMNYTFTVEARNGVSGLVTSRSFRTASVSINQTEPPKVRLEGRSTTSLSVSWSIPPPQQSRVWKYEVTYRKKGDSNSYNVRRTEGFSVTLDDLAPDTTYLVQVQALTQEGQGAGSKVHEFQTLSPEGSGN

B1: MGS_H1299.2 V4 (peptide)
peptide: Ac-YAAWPASGAWT[PEG11′]C-NH2
notes: Optimized MGS peptide from phage display (parent H1299.2); also called MGS_1299.2 V4
- Kd: 3.2 nM
